From patent US20220324960A1 (KINDRED BIOSCIENCES, published 2022)
Positions count from the first letter of the chain named. Each block holds one binder with its values, some of them ahead of it.

Target: T1, Canine IL31 (canine)
T1 chain: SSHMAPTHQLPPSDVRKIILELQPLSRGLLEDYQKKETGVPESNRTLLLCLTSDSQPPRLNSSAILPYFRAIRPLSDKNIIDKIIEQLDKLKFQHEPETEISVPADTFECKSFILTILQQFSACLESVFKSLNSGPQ
Assay: SPR, BIAcore 8K, Protein A sensor chip
Protocol: Chimeric antibodies composed of different combinations of cmVH1, cmVH2, or cmVH3 fused to human IgG1 heavy chain and cmVL1, cmVL2, and cmVL3 fused to human kappa constant light chain were generated. Caninized VH of M14 (SEQ ID NO: 3) fused to human IgG1 heavy chain and caninized VL of M14 (SEQ ID NO: 4) fused to human kappa constant light chain was also generated. Affinity of canine IL31 to the different chimeric antibodies was measured using a BIAcore 8K, as described in Table 3 below: […]

B1: Caninized VH-VL M14 chimeric antibody (caninized VH of M14 fused to human IgG1 heavy chain and caninized VL of M14 fused to human kappa constant light chain) (antibody, V domains shown)
VH: EVQLVESGPSLVKPGGSLRLTCSVTGDSITSGYWNWIRKFPGNKLEYMGYISYSGITDYNPSLKSRITISRDTSKNQYYLQLNSVTTEDTATYYCARYGNYGYAMDYWGQGTSVTVSS
VL: DIVMTQSPASLSVSLGQRATISCRASESVDTYGNSFMHWYQQKPGQSPKLLIYRASNLESGIPARFGGSGSGTDFTLTIDPVQADDVATYYCQQSYEDPWTFGGGTKLEIK
notes: Chimeric: VH fused to human IgG1 heavy chain, VL fused to human kappa constant light chain; also called analyte 1; caninized VH-VL M14 antibody control
Kd: 2.18 nM | koff: 0.000523 s⁻¹ | kon: 240000 M⁻¹ s⁻¹

B3: cmVH2 + cmVL2 chimeric antibody (antibody, human IgG1, V domains shown)
VH: B1 VH with N35K, G99P
VL: B1 VL with N34R, Q93Y
notes: also called analyte 3
Kd: 0.914 nM | koff: 0.000159 s⁻¹ | kon: 174000 M⁻¹ s⁻¹

B4: cmVH1 + cmVL1 chimeric antibody (antibody, human IgG1, V domains shown)
VH: B1 VH with N35K
VL: B1 VL with N34R
notes: also called analyte 2
Kd: 0.8 nM | koff: 0.000182 s⁻¹ | kon: 228000 M⁻¹ s⁻¹

B5: cmVH2 + cmVL3 chimeric antibody (antibody, human IgG1, V domains shown)
VH: B1 VH with N35K, G99P
VL: B1 VL with N34R, Q93H
notes: also called analyte 4
Kd: 0.868 nM | koff: 0.000162 s⁻¹ | kon: 186000 M⁻¹ s⁻¹

Next, values leading:

Kd: 0.858 nM | koff: 0.000185 s⁻¹ | kon: 216000 M⁻¹ s⁻¹
B2: cmVH3 + cmVL3 chimeric antibody (antibody, human IgG1, V domains shown)
VH: B1 VH with N35K, G99A
VL: B1 VL with N34R, Q93H
notes: also called analyte 6

Kd: 0.9 nM | koff: 0.000168 s⁻¹ | kon: 187000 M⁻¹ s⁻¹
B6: cmVH3 + cmVL2 chimeric antibody (antibody, human IgG1, V domains shown)
VH: B1 VH with N35K, G99A
VL: B1 VL with N34R, Q93Y
notes: also called analyte 5
